The supplement of paper PMC9112550, “Optimization of the antimicrobial peptide Bac7 by deep mutational scanning” (BMC Biology, 2022)

System: Escherichia coli TOP10
Experiment: shrunken log2 fold change of peptide-encoding DNA abundance (4.5 h post-induction vs induction); higher = less antimicrobial activity (less host growth inhibition)
Details: time post-induction: 4.5 h; library: site-saturation at positions 5, 18, 19, 20
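Also: peptides expressed intracellularly from a pBAD plasmid library in pooled LB shake-flask culture, induced with 0.3% L-arabinose, DNA abundance read by NGS, three biological replicates, DESeq2 with apeglm shrinkage.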

Sequence	shrunken log2 fold change
RRIRTRPPRLPRPRPRPKDSPRP	0.0052
RRIRTRPPRLPRPRPRPKDTPRP	-0.076
RRIRTRPPRLPRPRPRPKEKPRP	0.0414
RRIRTRPPRLPRPRPRPKFHPRP	-0.327
RRIRTRPPRLPRPRPRPKGDPRP	0.00199
RRIRTRPPRLPRPRPRPKHSPRP	-0.416
RRIRTRPPRLPRPRPRPKIHPRP	-0.427
RRIRTRPPRLPRPRPRPKKFPRP	-0.403
RRIRTRPPRLPRPRPRPKKIPRP	-0.437
RRIRTRPPRLPRPRPRPKMKPRP	-0.554
RRIRTRPPRLPRPRPRPKNEPRP	0.715
RRIRTRPPRLPRPRPRPKNRPRP	-0.0821
RRIRTRPPRLPRPRPRPKQAPRP	0.0749
RRIRTRPPRLPRPRPRPKSFPRP	0.0134
RRIRTRPPRLPRPRPRPKSPPRP	-0.0758
RRIRTRPPRLPRPRPRPKTRPRP	0.221
RRIRTRPPRLPRPRPRPKTSPRP	-0.0907
RRIRTRPPRLPRPRPRPKVRPRP	0.0294
RRIRTRPPRLPRPRPRPKVWPRP	0.325
RRIRTRPPRLPRPRPRPKVYPRP	0.0324
RRIRTRPPRLPRPRPRPLADPRP	0.125
RRIRTRPPRLPRPRPRPLALPRP	-0.0853
RRIRTRPPRLPRPRPRPLAMPRP	0.128
RRIRTRPPRLPRPRPRPLDRPRP	0.0153
RRIRTRPPRLPRPRPRPLEKPRP	0.419

Sequence	shrunken log2 fold change
RRIRTRPPRLPRPRPRPLFMPRP	-0.737
RRIRTRPPRLPRPRPRPLFWPRP	0.134
RRIRTRPPRLPRPRPRPLGGPRP	0.137
RRIRTRPPRLPRPRPRPLGKPRP	0.0663
RRIRTRPPRLPRPRPRPLGNPRP	-0.159
RRIRTRPPRLPRPRPRPLGPPRP	0.114
RRIRTRPPRLPRPRPRPLILPRP	-0.839
RRIRTRPPRLPRPRPRPLKDPRP	0.0122
RRIRTRPPRLPRPRPRPLKLPRP	-0.251
RRIRTRPPRLPRPRPRPLMAPRP	-0.031
RRIRTRPPRLPRPRPRPLMPPRP	0.0315
RRIRTRPPRLPRPRPRPLMQPRP	0.19
RRIRTRPPRLPRPRPRPLNCPRP	-0.405
RRIRTRPPRLPRPRPRPLNMPRP	0.00244
RRIRTRPPRLPRPRPRPLPNPRP	0.203
RRIRTRPPRLPRPRPRPLPPPRP	0.333
RRIRTRPPRLPRPRPRPLPQPRP	0.165
RRIRTRPPRLPRPRPRPLPTPRP	0.368
RRIRTRPPRLPRPRPRPLQMPRP	0.2
RRIRTRPPRLPRPRPRPLRQPRP	0.456
RRIRTRPPRLPRPRPRPLVGPRP	0.131
RRIRTRPPRLPRPRPRPLVIPRP	-0.44
RRIRTRPPRLPRPRPRPLVLPRP	-0.162
RRIRTRPPRLPRPRPRPLVVPRP	0.193
RRIRTRPPRLPRPRPRPLYQPRP	-0.375

Sequence	shrunken log2 fold change
RRIRTRPPRLPRPRPRPMALPRP	-0.0542
RRIRTRPPRLPRPRPRPMAMPRP	0.0345
RRIRTRPPRLPRPRPRPMDIPRP	-0.00738
RRIRTRPPRLPRPRPRPMGKPRP	0.0179
RRIRTRPPRLPRPRPRPMGSPRP	-0.0908
RRIRTRPPRLPRPRPRPMHTPRP	0.0134
RRIRTRPPRLPRPRPRPMICPRP	-0.0677
RRIRTRPPRLPRPRPRPMKLPRP	-0.192
RRIRTRPPRLPRPRPRPMKYPRP	-0.0467
RRIRTRPPRLPRPRPRPMLFPRP	0.177
RRIRTRPPRLPRPRPRPMMDPRP	-0.141
RRIRTRPPRLPRPRPRPMRQPRP	-0.01
RRIRTRPPRLPRPRPRPMSDPRP	-0.0819
RRIRTRPPRLPRPRPRPMSNPRP	-0.535
RRIRTRPPRLPRPRPRPMTDPRP	0.0245
RRIRTRPPRLPRPRPRPMWEPRP	-0.0158
RRIRTRPPRLPRPRPRPMWQPRP	0.0135
RRIRTRPPRLPRPRPRPMYNPRP	-0.325
RRIRTRPPRLPRPRPRPNAPPRP	-0.0472
RRIRTRPPRLPRPRPRPNEEPRP	-0.0204
RRIRTRPPRLPRPRPRPNFLPRP	0.998
RRIRTRPPRLPRPRPRPNHCPRP	-0.479
RRIRTRPPRLPRPRPRPNHYPRP	-0.679
RRIRTRPPRLPRPRPRPNIHPRP	-0.586
RRIRTRPPRLPRPRPRPNILPRP	-0.484

Sequence	shrunken log2 fold change
RRIRTRPPRLPRPRPRPNINPRP	-0.812
RRIRTRPPRLPRPRPRPNLWPRP	-0.0774
RRIRTRPPRLPRPRPRPNNDPRP	-0.797
RRIRTRPPRLPRPRPRPNNNPRP	-0.451
RRIRTRPPRLPRPRPRPNPNPRP	-0.306
RRIRTRPPRLPRPRPRPNQIPRP	-0.469
RRIRTRPPRLPRPRPRPNQKPRP	-0.306
RRIRTRPPRLPRPRPRPNRNPRP	-0.544
RRIRTRPPRLPRPRPRPNSHPRP	-0.015
RRIRTRPPRLPRPRPRPNSKPRP	-0.848
RRIRTRPPRLPRPRPRPNSRPRP	-0.0848
RRIRTRPPRLPRPRPRPNSYPRP	-0.188
RRIRTRPPRLPRPRPRPNTLPRP	-0.377
RRIRTRPPRLPRPRPRPNVEPRP	-0.00865
RRIRTRPPRLPRPRPRPNVFPRP	0.0305
RRIRTRPPRLPRPRPRPNWQPRP	0.0832
RRIRTRPPRLPRPRPRPNWTPRP	0.00155
RRIRTRPPRLPRPRPRPPDLPRP	0.243
RRIRTRPPRLPRPRPRPPFSPRP	0.0411
RRIRTRPPRLPRPRPRPPGIPRP	0.264
RRIRTRPPRLPRPRPRPPHCPRP	0.474
RRIRTRPPRLPRPRPRPPHMPRP	-0.101
RRIRTRPPRLPRPRPRPPIHPRP	-0.323
RRIRTRPPRLPRPRPRPPIKPRP	-0.368
RRIRTRPPRLPRPRPRPPINPRP	-0.338

Sequence	shrunken log2 fold change
RRIRTRPPRLPRPRPRPPMGPRP	0.271
RRIRTRPPRLPRPRPRPPMQPRP	0.0806
RRIRTRPPRLPRPRPRPPMWPRP	0.0903
RRIRTRPPRLPRPRPRPPPSPRP	1.16
RRIRTRPPRLPRPRPRPPPYPRP	-0.000222
RRIRTRPPRLPRPRPRPPQAPRP	0.121
RRIRTRPPRLPRPRPRPPRKPRP	0.25
RRIRTRPPRLPRPRPRPPRLPRP	0.343
RRIRTRPPRLPRPRPRPPRNPRP	1.27
RRIRTRPPRLPRPRPRPPSGPRP	0.467
RRIRTRPPRLPRPRPRPPTYPRP	-0.149
RRIRTRPPRLPRPRPRPPVIPRP	0.213
RRIRTRPPRLPRPRPRPPWFPRP	0.0438
RRIRTRPPRLPRPRPRPPWGPRP	0.0724
RRIRTRPPRLPRPRPRPQASPRP	2.4
RRIRTRPPRLPRPRPRPQAYPRP	-0.629
RRIRTRPPRLPRPRPRPQCFPRP	0.0187
RRIRTRPPRLPRPRPRPQCGPRP	-0.0173
RRIRTRPPRLPRPRPRPQCKPRP	-0.26
RRIRTRPPRLPRPRPRPQDMPRP	-0.48
RRIRTRPPRLPRPRPRPQFAPRP	0.0816
RRIRTRPPRLPRPRPRPQFGPRP	-0.00643
RRIRTRPPRLPRPRPRPQFNPRP	-0.226
RRIRTRPPRLPRPRPRPQGHPRP	-0.122
RRIRTRPPRLPRPRPRPQGNPRP	-0.164

Sequence	shrunken log2 fold change
RRIRTRPPRLPRPRPRPQGTPRP	0.0402
RRIRTRPPRLPRPRPRPQHDPRP	-0.259
RRIRTRPPRLPRPRPRPQKFPRP	-0.632
RRIRTRPPRLPRPRPRPQKNPRP	-0.419
RRIRTRPPRLPRPRPRPQLVPRP	0.0727
RRIRTRPPRLPRPRPRPQMAPRP	-0.177
RRIRTRPPRLPRPRPRPQMFPRP	0.0287
RRIRTRPPRLPRPRPRPQNIPRP	-0.587
RRIRTRPPRLPRPRPRPQNNPRP	-0.716
RRIRTRPPRLPRPRPRPQPKPRP	0.151
RRIRTRPPRLPRPRPRPQPSPRP	-0.095
RRIRTRPPRLPRPRPRPQQDPRP	-0.18
RRIRTRPPRLPRPRPRPQQIPRP	-0.0971
RRIRTRPPRLPRPRPRPQRNPRP	-0.115
RRIRTRPPRLPRPRPRPQRVPRP	-0.0793
RRIRTRPPRLPRPRPRPQTCPRP	-0.176
RRIRTRPPRLPRPRPRPQVGPRP	-0.137
RRIRTRPPRLPRPRPRPQWWPRP	0.199
RRIRTRPPRLPRPRPRPRAGPRP	0.41
RRIRTRPPRLPRPRPRPRCAPRP	0.0538
RRIRTRPPRLPRPRPRPRCHPRP	-0.334
RRIRTRPPRLPRPRPRPRCIPRP	0.0613
RRIRTRPPRLPRPRPRPRCNPRP	-0.36
RRIRTRPPRLPRPRPRPRDPPRP	0.047
RRIRTRPPRLPRPRPRPRDVPRP	0.369
